Literature values in publication PMC2913173.

Biological target: Bcl-2 (Homo sapiens) (UniProt P10415)
Assay: fluorescence polarization

Chain of Bcl-2 (Homo sapiens) (P10415 whole entry): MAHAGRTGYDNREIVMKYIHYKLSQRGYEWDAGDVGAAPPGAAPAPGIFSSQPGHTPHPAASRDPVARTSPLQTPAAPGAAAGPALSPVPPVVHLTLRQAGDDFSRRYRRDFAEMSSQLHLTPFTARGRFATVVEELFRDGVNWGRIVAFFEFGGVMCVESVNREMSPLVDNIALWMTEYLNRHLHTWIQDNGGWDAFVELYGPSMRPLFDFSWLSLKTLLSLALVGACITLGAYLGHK

For Bak 72-87 (from UniProt Q16611), the Kd is listed as 1600 nM.
